Measured values taken from publication PMC9089897 (PLoS Pathogens, 2022).

Molecular target: biotinylated avi-tagged SARS-CoV-2 (Wuhan) receptor binding domain (RBD) (SARS-CoV-2 (Wuhan strain), UniProt P0DTC2, biotin (avi-tagged RBD labeled with biotin, BirA500))
Assay: BLI
Details: both partners purified

B1: REGN10933 (antibody, V domains shown)
VH: QVQLVESGGGLVKPGGSLRLSCAASGFTFSDYYMSWIRQAPGKGLEWVSYITYSGSTIYYADSVKGRFTISRDNAKSSLYLQMNSLRAEDTAVYYCARDRGTTMVPFDYWGQGTLVTVSS
VL: DIQMTQSPSSLSASVGDRVTITCQASQDITNYLNWYQQKPGKAPKLLIYAASNLETGVPSRFSGSGSGTDFTFTISGLQPEDIATYYCQQYDNLPLTFGGGTKVEIK
notes: also called Casirivimab
binding result: binds

B2: REGN10987 (antibody, V domains shown)
VH: QVQLVESGGGVVQPGRSLRLSCAASGFTFSNYAMYWVRQAPGKGLEWVAVISYDGSNKYYADSVKGRFTISRDNSKNTLYLQMNSLRTEDTAVYYCASGSDYGDYLLVYWGQGTLVTVSS
VL: QSALTQPASVSGSPGQSITISCTGTSSDVGGYNYVSWYQQHPGKAPKLMIYDVSKRPSGVSNRFSGSKSGNTASLTISGLQSEDEADYYCNSLTSISTWVFGGGTKLTVL
notes: also called Imdevimab
binding result: binds
